Assay [1] concerns the target Lys63-linked polyubiquitin (UniProt P0CG48). The experiment in a line: co-immunoprecipitation (anti-FLAG beads), immunoblot quantification. The note with it: HEK293 cells; n = 3; parent: est. 1.0; read off a plot.
Assay [2] addresses p97/VCP (valosin-containing protein) (UniProt P55072). Described as above. The note with it: HEK293 cells; n = 3; parent: est. 1.0; read off a plot.

This note sets out measurements from article PMC6663880.

UniProt P55072, sequence (P55072 whole entry): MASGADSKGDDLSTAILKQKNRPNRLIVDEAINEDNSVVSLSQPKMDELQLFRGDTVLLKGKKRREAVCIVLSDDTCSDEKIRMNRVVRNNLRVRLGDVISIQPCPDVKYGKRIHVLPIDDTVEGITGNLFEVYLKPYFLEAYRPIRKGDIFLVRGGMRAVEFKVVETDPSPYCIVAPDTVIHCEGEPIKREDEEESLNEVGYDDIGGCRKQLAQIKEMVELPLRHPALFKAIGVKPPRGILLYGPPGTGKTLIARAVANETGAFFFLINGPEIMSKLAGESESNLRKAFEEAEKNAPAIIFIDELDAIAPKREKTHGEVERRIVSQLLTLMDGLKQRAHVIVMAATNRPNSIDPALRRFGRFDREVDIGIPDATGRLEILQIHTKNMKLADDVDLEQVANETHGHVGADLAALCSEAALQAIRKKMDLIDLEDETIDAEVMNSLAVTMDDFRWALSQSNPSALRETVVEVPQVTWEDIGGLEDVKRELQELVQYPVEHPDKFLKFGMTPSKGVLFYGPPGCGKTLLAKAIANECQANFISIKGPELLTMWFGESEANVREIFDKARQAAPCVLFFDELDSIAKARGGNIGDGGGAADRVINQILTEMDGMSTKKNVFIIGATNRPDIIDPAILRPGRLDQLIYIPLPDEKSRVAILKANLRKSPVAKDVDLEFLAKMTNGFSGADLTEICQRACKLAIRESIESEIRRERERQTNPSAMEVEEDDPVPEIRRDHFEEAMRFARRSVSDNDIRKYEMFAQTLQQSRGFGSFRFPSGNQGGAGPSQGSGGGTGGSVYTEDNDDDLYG

Consider “RHBDL4mycFLAG (from UniProt Q8TEB9) AllY>F”, for which the figures for the ratio to parent in assay [1] and in assay [2] were 0.36 and 0.22, respectively.
